{"source": "patent US20180186871A1", "assay_in_all_cases": "cell-based or functional assay", "key": {"murine IL-11 (mouse) [1]": {"target": "T1, murine IL-11 (mouse) (UniProt P47873)", "T1 sequence (looked up)": "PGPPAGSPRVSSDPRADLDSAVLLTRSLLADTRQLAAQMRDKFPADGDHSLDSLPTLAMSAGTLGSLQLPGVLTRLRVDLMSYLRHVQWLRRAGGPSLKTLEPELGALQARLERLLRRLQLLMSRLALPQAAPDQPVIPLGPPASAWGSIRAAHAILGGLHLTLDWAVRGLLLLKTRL"}, "murine IL-11 (mouse) [2]": {"target": "T1, murine IL-11 (mouse)", "remark": "listed apart in the source"}, "[3]": {"target": "IL-11:IL-11Rα fusion protein", "sequence (chain, as listed by the source limits assumed)": "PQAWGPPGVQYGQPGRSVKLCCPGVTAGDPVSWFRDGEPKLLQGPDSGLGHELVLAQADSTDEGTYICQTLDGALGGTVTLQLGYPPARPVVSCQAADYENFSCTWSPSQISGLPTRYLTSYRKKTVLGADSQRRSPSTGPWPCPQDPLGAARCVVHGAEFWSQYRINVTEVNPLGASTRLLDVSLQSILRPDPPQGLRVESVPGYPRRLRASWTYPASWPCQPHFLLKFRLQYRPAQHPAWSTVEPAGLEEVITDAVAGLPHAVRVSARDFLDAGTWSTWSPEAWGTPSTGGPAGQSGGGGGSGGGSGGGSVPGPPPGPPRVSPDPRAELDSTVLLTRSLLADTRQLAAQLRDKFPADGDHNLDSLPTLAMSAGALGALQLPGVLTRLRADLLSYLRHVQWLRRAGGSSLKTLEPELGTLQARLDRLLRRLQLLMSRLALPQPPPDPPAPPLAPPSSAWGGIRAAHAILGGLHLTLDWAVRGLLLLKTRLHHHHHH"}, "human IL-11 (human)": {"target": "human IL-11 (human) (UniProt P20809)"}}, "note": "Read-outs that look alike come from different tables or passages of the source.", "data": [{"substance": "Monoclonal Mouse IgG2A anti-human IL-11 antibody, Clone #22626, Catalog No. MAB218 (R&D Systems)", "values": [{"measurement": "percentage of αSMA-positive (activated) fibroblasts, mouse atrial fibroblasts + TGFβ1", "setting": "murine IL-11 (mouse) [1]", "result": 43, "unit": "%"}, {"measurement": "percentage of αSMA-positive (activated) fibroblasts, mouse atrial fibroblasts + TGFβ1, normalised to unstimulated (=1) (fold of unstimulated)", "setting": "murine IL-11 (mouse) [1]", "result": 1.44}, {"measurement": "percentage of αSMA-positive (activated) fibroblasts, mouse atrial fibroblasts + TGFβ1", "setting": "murine IL-11 (mouse) [2]", "result": 39.4, "unit": "%"}, {"measurement": "percentage of αSMA-positive (activated) fibroblasts, mouse atrial fibroblasts + TGFβ1, normalised to unstimulated (=1) (fold of unstimulated)", "setting": "murine IL-11 (mouse) [2]", "result": 1.24}, {"measurement": "percentage of αSMA-positive (activated) fibroblasts, human atrial fibroblasts + hyper IL-11 (0.2 ng/ml)", "setting": "[3]", "result": 33.8, "unit": "%"}, {"measurement": "percentage of αSMA-positive (activated) fibroblasts, human atrial fibroblasts + hyper IL-11 (0.2 ng/ml), normalised to unstimulated (=1) (fold of unstimulated)", "setting": "[3]", "result": 1.28}, {"measurement": "percentage of αSMA-positive (activated) fibroblasts, human atrial fibroblasts + TGFβ1", "setting": "human IL-11 (human)", "result": 28.3, "unit": "%"}, {"measurement": "percentage of αSMA-positive (activated) fibroblasts, human atrial fibroblasts + TGFβ1, normalised to unstimulated (=1) (fold of unstimulated)", "setting": "human IL-11 (human)", "result": 0.99}, {"measurement": "percentage of αSMA-positive (activated) fibroblasts, human atrial fibroblasts + TGFβ1, relative to unstimulated", "setting": "human IL-11 (human)", "result": 0.89, "unit": "times"}]}]}
